Consider 16 substances from patent EP0925358B1.

Some results are limits rather than exact numbers.

The target in this assay is human CXC Chemokine Receptor 3 (CXCR3) (human) (UniProt P49682). Nature of the assay: cell-based or functional assay.
Chain of UniProt P49682 (P49682 whole entry, form in doubt): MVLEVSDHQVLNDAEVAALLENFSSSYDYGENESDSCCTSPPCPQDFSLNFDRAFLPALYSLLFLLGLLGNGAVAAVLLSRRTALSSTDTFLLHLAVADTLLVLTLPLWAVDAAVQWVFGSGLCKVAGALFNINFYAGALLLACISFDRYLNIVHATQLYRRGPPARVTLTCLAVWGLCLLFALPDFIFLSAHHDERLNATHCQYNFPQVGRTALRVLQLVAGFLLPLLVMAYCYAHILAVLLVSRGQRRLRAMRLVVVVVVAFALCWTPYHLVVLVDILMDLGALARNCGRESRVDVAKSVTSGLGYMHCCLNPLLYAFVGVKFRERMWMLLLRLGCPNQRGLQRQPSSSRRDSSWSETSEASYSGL
For “ENA78 (epithelial-derived neutrophil-activating peptide 78) (from UniProt P42830 37-114) (ligand)”, the [Ca2+]i changes in IP-10/MigR transfectants is over 100 nM.
For the substance “GCP-2 (granulocyte chemotactic protein-2) (from UniProt P80162 38-114) (ligand)”, the [Ca2+]i changes in IP-10/MigR transfectants was over 100 nM.
The value for “GROα (from UniProt P09341 35-107) (ligand)” was over 100 nM; that for “I309 (from UniProt P22362 24-96) (ligand)” was over 100 nM.
Substance “IL-8 (from UniProt P10145 28-99) (ligand)” had a [Ca2+]i changes in IP-10/MigR transfectants of over 100 nM.
With “MCP-1 (monocyte chemotactic protein-1) (from UniProt P13500 24-99) (ligand)”, the [Ca2+]i changes in IP-10/MigR transfectants is over 100 nM.
To “MCP-2 (from UniProt P80075 24-99) (ligand)” belongs over 100 nM.
To “MCP-3 (from UniProt P80098 24-99) (ligand)” belongs over 100 nM; to “MCP-4 (from UniProt Q99616 24-98) (ligand)”, over 100 nM.
The value for “MIP-1α (macrophage inflammatory protein-1α) (from UniProt P10147 24-92) (ligand)” was over 100 nM; that for “MIP-1β (from UniProt P13236 24-92) (ligand)” was over 100 nM; that for “NAP-2 (neutrophil-activating protein-2) (from UniProt P02775 59-128) (ligand)” was over 100 nM.
The substance “PF4 (platelet factor 4) (from UniProt P02776 32-101) (ligand)” displayed a [Ca2+]i changes in IP-10/MigR transfectants of over 100 nM.
As for “RANTES (regulated on activation, normal T cell expressed and secreted) (from UniProt P13501 24-91) (ligand)”, the [Ca2+]i changes in IP-10/MigR transfectants is over 100 nM.
The value for “eotaxin (from UniProt P51671 24-97) (ligand)” was over 100 nM.
To “lymphotactin (from UniProt P47992 22-114) (ligand)” belongs over 100 nM.
